The source of these data is the nanobody polyreactivity screen of Harvey et al. (2022).

A short description of this series: yeast display, Sf9 membrane polyspecificity reagent, FACS + sequencing; frameworks hold sequencing errors. The essentials:
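Galactose induction of a Saccharomyces cerevisiae BJ5465 synthetic nanobody display library ran 36–48 hours. The cells were then stained for 1 hour at 4 °C with 10% biotinylated, detergent-solubilized Sf9 membrane reagent, pulled down on streptavidin microbeads and FACS-sorted into low and high (top ~1%) gates on expression and reagent-binding fluorescence. Labels for polyreactivity follow the gate of origin.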
With “QVQLVESGGGLVQAGGILRLSCAASGNAMGWYRQAPGKERELVATINRSGGRTYYADSVKGRFTISRDNAKNTVYLQMNSLKPEDTAVYYCATEGRWPNASYGDYDYWGQGTQVSVSS”, the “polyreactivity (PSR sort gate)” value is reported as “low polyreactivity”.
For “QVQLVESGGGLVQAGGILRLSCAASGNIFDRYAMGWYSQAPGKERELVAGMTWSGGSTYYADSVKWRFTISRDNAKNTVYLQMNSLKPEDTAVYYCGQANYYWGQGTQVTVSS”, the “polyreactivity (PSR sort gate)” value is “low polyreactivity”.
As for “QVQLVESGGGLVQAGGILRLSCAASGRIFRYNAMGWSRQAPGKERELVAAISSSGSSTYYADSVKGRFTISRDNAKNTVYLQMNSLKPADTAVYYCNARIPSRYYYQYDYWGQGTQVTVSS”, the “polyreactivity (PSR sort gate)” value is “high polyreactivity”.
With “QVQLVESGGGLVQAGGILRLSCAASGRIFSRYVMGWYRQAPGKEREFVASITWSGSSTYYADSVKGRFTISRDNAKNTVYLQMNSLKPEDTAVYYCAALGLLSPSPWGTHISEYDSWGQGTQVTVSS”, the “polyreactivity (PSR sort gate)” value is recorded as “low polyreactivity”.
Take “QVQLVESGGGLVQAGGILRLSCAASGRNFVHYAMGWYRQAPGKERELVAAISHSGGRTYYADSVKGRFTMSRDYAQNTVYLQMNSLKPEDTAVYYCNVRGSPAGTGLLDYWGQGTQVTVSS”: the “polyreactivity (PSR sort gate)” value is given as “high polyreactivity”.
Under “QVQLVESGGGLVQAGGILRLSCAASGRTFKYYAMGWYRQAPGKERELVATITWSGTSTNFADSVKGRFTISRDNAKNTVYLQMNSLKPEDTAVYYCAARSKRRNYDYWGQGTQVTVSS” stands “high polyreactivity”; under “QVQLVESGGGLVQAGGILRLSCAASGRTFNSNAMGWYRQAPGKERELVAAITGGGGRTYYADSVKGRFTISRDNAKNTVYLQMNSVKPEDTAVYYCYAARWYRGYDYWGQVTQVTVSS”, “high polyreactivity”; under “QVQLVESGGGLVQAGGILRLSCAASGRTFQGNAMGWSRQAPGKERELVAVIDSGTSTDYADSVKGRFTISRDNAKNTVYLQMNSLKPEDTAVYYCAADGALGYNLRYDYWGQGTQVTVSS”, “low polyreactivity”.
Under “QVQLVESGGGLVQAGGILRLSCAASGRTFSWNAMGWYRQAPGKERELVAAISNSGGSTYYADSVKGRFTISRDNAKNTVFLQMNSLKPEDTAVYYCAVYRYYGFSLWYDYWGQGTQVTVSS” stands “low polyreactivity”; under “QVQLVESGGGLVQAGGILRLSCAASGSIFDVYAMGWYRQAPGKERELVAAINRGGSTNYADSVKGRFTISRDNAKNTVYLQMNCLKPEDTAVYYCAADIVWYVYNGYYWIFDYWGQGTQVTVSS”, “high polyreactivity”.
Consider “QVQLVESGGGLVQAGGILRLSCAASGSIFEWYAMGWYRQAPGKEREFVAAINSGGSTYYADSVKGRFTISRDNAKNTVYLQMNSLKPEDTAVYYCNKVSYGYSTYGYWGQGTQVTVSS”, for which the “polyreactivity (PSR sort gate)” value was “low polyreactivity”.
Take “QVQLVESGGGLVQAGGILRLSCAASGSIFNGYAMGWYRQSPGKERELVAAISWNGGSTYYADSVKGRFTISRDNAKNTFYLLMNSLKPEDTAVYYFAAGGYYDSRTYYYWGQGTQVSVSS”: the “polyreactivity (PSR sort gate)” value is given as “high polyreactivity”.
On to “QVQLVESGGGLVQAGGILRLSCAASGSIFPFNAMGWYRQAPGKERDLVAAITRSGGSTYYADSVKGRFTISRDNAKNTVYLQMNSLKPEDTSVYYCATDPEWPLPAYYYWGQGTQVTVSS”, for which the “polyreactivity (PSR sort gate)” value is given as “low polyreactivity”.
“QVQLVESGGGLVQAGGILRLSCAASGSIFRQYARGWYRQAPGKERAFVAAITRRGGSTRYADSVKGRFTISRDNAKNTVYLQMNSLKPEDSAVEYCAARGVPGLHRYYYWGQGTQVTVSS”: the “polyreactivity (PSR sort gate)” value is “high polyreactivity”.
Under “QVQLVESGGGLVQAGGILRLSCAASGSIFSQYAMGWYRQAPGKERELVATISWNGGRTYYADSVKGRFTISRDNAKNTVYLELNSLKPEDTAVYYCAARYGGVPYYYWGQGTQVTVSS” stands “high polyreactivity”; under “QVQLVESGGGLVQAGGILRLSCAASGSIFYWSTMGWYIQAPGKERELVAAISSIDGNTYYADSVKGRFTISRDNAKNTVYLQMNSLKPEDTAVYYCAAAYYNTDYYYWGQGTQVTVSS”, “low polyreactivity”; under “QVQLVESGGGLVQAGGILRLSCAASGSTFAANAMGWYRQAPGKERELVAAITSSGGSTYYADSVKGRFTISRDNAKNTVYLQMNSLKPEDTAVYYCNKDIERYVRIYYSWGQGTQVTVSS”, “low polyreactivity”.
Regarding “QVQLVESGGGLVQAGGILRLSCAASGSTFAQNAMGWYRQAPGKEREFVAAITGTVGSTYYADSVKGRFTISRDNAKNTVYLQMNSLKPEDTAVFYCNTRGFNGRVYPYDYWGQGTQVTVSS”, the “polyreactivity (PSR sort gate)” value was “low polyreactivity”.
For the sequence “QVQLVESGGGLVQAGGILRLSCAASGSTFDINTMGWYRQAPGKEREFVAAITDSDDSTYYADSVKGRFTISRDHAKNTVYLLMNSLKPEDTAVDYCNYDYWGQGTQVTVAS”, the “polyreactivity (PSR sort gate)” value was “low polyreactivity”.
As to “QVQLVESGGGLVQAGGILRLSCAASGSTFPFYAMGWYRQAPGKVRELVASINSDGSTNYADSVKGRFTISRDNAKNTVYLQMNSLKPEDTAVYYCAAGWQTRFYSRYYYWGQGTQVTVSS”, the “polyreactivity (PSR sort gate)” value is recorded as “high polyreactivity”.
For “QVQLVESGGGLVQAGGILRLSCAASGSTFYENAMGWYRQAPGKERELVAAITWSGGRTYYADSVKGRFTISRDNAKNTVYLQMNSLKPEDTAVYYCNARARSRKFYYWGQVTQVTVSS”, the “polyreactivity (PSR sort gate)” value is “high polyreactivity”.
Under “QVQLVESGGGLVQAGGILRLSCAASGYIFGPNAMGCYRQAPGKERELVAGITWSTGNTYYAVSVKGRFTISRDNAKNTVYLHMNSLKPEDTAVYYCAADFYVAYEGVQPYWMDYWGQGTQVNVSS” stands “low polyreactivity”; under “QVQLVESGGGLVQAGGILRLSCAAYGSISYGYGMGWYRQPPGKERELVATLSGRAGSTYYADSVKGRFTISRDNAKYTVYLQMNSLKPEDTAVYYCAAKWWRLTWTAGYGGRCYGYWGQGSQVTVSS”, “low polyreactivity”.
Turning to “QVQLVESGGGLVQAGGILRLSCADSGRTFWYYAMGWYRQAHGKERELVAAITRGGRTNYADSVKGRFTISRDNAKNTVYLQMNSLKPEDTAVYYCAADYRYPAHSYGYWGQGTQVTVSS”, the “polyreactivity (PSR sort gate)” value was “high polyreactivity”.
As to “QVQLVESGGGLVQAGGILRLSCADSGSTFIGYAMGWYRQAPRKERELFAAISKSGGSTYYADSVKGRFTISRDNAKNTVYLQMNSLKPEDTAVYYCIVDTSRYVSWNDYWGQGTQVTVSS”, the “polyreactivity (PSR sort gate)” value is on record as “high polyreactivity”.
Take “QVQLVESGGGLVQAGGILRLSCASSGRTFAWYAMGWYRPAPGKERELVAAITTRGSGTYYADSVKGRFTISRDNAKNTVYLQMNSLKPEDTAVYYGAKDPITATTLDERVYYWGQGTQLTVSS”: the “polyreactivity (PSR sort gate)” value was “low polyreactivity”.
For the sequence “QVQLVESGGGLVQAGGILRLSCASSGSTFGYNVMGWYRQAPGKERELVAAISSSGGSTYYADSVKGRFTISRDTAKNTVYLQMNSLNPEDTAVYYGAADVGFRWYRYTAGPLEYDYWGQGTQVTVSS”, the “polyreactivity (PSR sort gate)” value was “high polyreactivity”.
With “QVQLVESGGGLVQAGGILRLSCPASGIIFDGNVMGWYRQAPGKEREFVASISISGGSTSYADSVKGRFTISRDNAKNTVYLQMNSLKPEDTAVYYCNTDVGYGRVWRWRYHGDYWGQGTQVTVSS”, the “polyreactivity (PSR sort gate)” value was “low polyreactivity”.
Then “QVQLVESGGGLVQAGGNLRLICDASGSIFLYNTMGWYRHAPGQERELVAAITYSGGSTYYADSVKGRFTISRDNAKNTVYLQMNSLNPEDTAVYYCNARHYSAFYSWGQGTQVTVSS”, with “high polyreactivity”.
As to “QVQLVESGGGLVQAGGNLRLSCAASGIILYRYAMGWYRQAHGKERELVAAISRRGGSTYYADSVKGRFTISRDNAKNSVYLQMNSLKPEDTAVYYCAAYYRGYAYYYWGQGTQVTVSS”, the “polyreactivity (PSR sort gate)” value is “high polyreactivity”.
Then “QVQLVESGGGLVQAGGNLRLSCAASGSIFYWNAMGWYRQAPGKERELVAAINYSGDSTYYADSVKVRFTISRDNAKNTVYLQMNSLKPEDTAVYYCNFDYWGQGSQVTVSS”, with “low polyreactivity”; and “QVQLVESGGGLVQAGGRHRISCAASGLICVTYAMGWYRQAPGKERELVAVITASGDGTYYADSVKGRFTMSRDNAKNTVYLQMNSLKPEDSAVYSCAAGNMSQVGAIGKNTSQSDYWGQGTHVTVSS”, with “low polyreactivity”; and “QVQLVESGGGLVQAGGRIRLSCAASGIIFYPYAMGWYRQAPGKERELVAGISSSGGSTYYADSVKGRFTISRDNAKNTVYLQMNSLKPEDTAVYYCAAVRISRTPRGLYEYWGQGTQVTVSS”, with “high polyreactivity”.
For the sequence “QVQLVESGGGLVQAGGRIRLTCAASGFTFKAYSMGCDRQAPGKERELVAAITKSGGRTFYADSVKGRFRISRDNAKNTVYLQMNSLKPEDTAVYYCAASYTVYYWGQGTQVTVSS”, the “polyreactivity (PSR sort gate)” value was “high polyreactivity”.
With “QVQLVESGGGLVQAGGRLLLSCAASGLTFYEYAMGWYRQAHGKERELVADIDFNGGSTSYAYSVKGRFTISRDNAKNTVYLQMNSLKPEDTAVYYCNTRDRGDVVTGLDYSGQGTQVTVSS”, the “polyreactivity (PSR sort gate)” value is “low polyreactivity”.
In the case of “QVQLVESGGGLVQAGGRLPLSCAASGSTIYINAMGWYRQPPGKQRELVAPISYSGGSSYFADSVKGRFTISRDYAKNTVYFQKNSLIPEDTRVYYCYARGLQSFYPGYWFRGDFWGQGTQVTVSS”, the “polyreactivity (PSR sort gate)” value is “high polyreactivity”.
Take “QVQLVESGGGLVQAGGRLRISCAASGFTFTRYAMRWYRQAPGKERELVAAISWSGGSTYYADSVKGRFTISRDNAKNTVSFQMNSLKPEDTAVYYCAKRGTVRQGGYGFWGQGTQVSVSS”: the “polyreactivity (PSR sort gate)” value is listed as “high polyreactivity”.
With “QVQLVESGGGLVQAGGRLRISCAASGSTFQPYAMGWYRQAPGKERELVAAISWRGGSTYYADSVKGRFTISRDNAKNTVYLQMNSLKPEDTAVSYCAAYFYFRRGTDYDYWGQGTQVTVSS”, the “polyreactivity (PSR sort gate)” value is given as “high polyreactivity”.
On to “QVQLVESGGGLVQAGGRLRITCAASGRTFKTYAMGWYRPAPGKERELVAAISRRGGSTYFADSVKGRFTISRDNAKNTVYLQMNSLKPEDTAVYYCASGNSVGLGWGQGTQVTLSS”, for which the “polyreactivity (PSR sort gate)” value is “high polyreactivity”.
Turning to “QVQLVESGGGLVQAGGRLRLICAASGSTFVTNYMGWYRQAPGKERELVAAISSGTSTNYADSVKGRFTISRDNAKNSVYLPMNSLTPEDTAVYYCAADSLKRYDYWGQGTQVTVSS”, the “polyreactivity (PSR sort gate)” value is on record as “low polyreactivity”.
Under “QVQLVESGGGLVQAGGRLRLRCAASGFILDTYAMGGYRQAAGNERELVAGITVRGGSTYYADSVKGRFTISRDNAKNTVYLQMNSLKPEDTAVYYCNAAQDRFGYRRSGYWYDYWGQGTQVTVSS” stands “low polyreactivity”.
